According to US11091546B2, “Optimized PNE-based chimeric receptor T cell switches and uses thereof” (The Scripps Research Institute, priority 2015, dated 2021):

System: U937 (CLL1+) cells
Experiment: Cytotoxicity assay, sCAR-T cells + anti-CLL1 switches
Format: cell-based
Details: with short-dimeric CAR
Text: FIG. 38A illustrates multiple fusion/grafting locations: A=LCNT1 (light chain N terminus version 1), B=HCNT3 (heavy chain N terminus version 3), C=heavy chain C terminus, and D=light chain C terminus). […] Data shown are an average of duplicate samples, and error bars represent SD. Only the NT switches plus the BvCT and By CH1CL1 as references are depicted.
By utilizing the “universal” anti-peptide sCART cell, multiple switches targeting multiple cancer associated antigens can be rapidly developed. An example of this is the generation of peptide engrafted switches against the AML associated antigen CLL1. A series of 6 plasmids were designed into which commercially synthesized gene-blocks encoding scFv sequences were inserted by gibson phase assembly to generate: Light chain wild type, light chain N-terminal, light chain C-terminal, heavy chain wild type, heavy chain N-terminal and heavy chain C-terminal plasmid constructs. […]
Another example (see Example 7) of switch SAR was shown with the anti-CLL1 switch derived from the anti-CLL1 antibody clone. […] Using these switches in combination with the three different CAR constructs (long, short and short dimeric) in cytotoxicity assays with the CLL1^+U937 cell line it was determined that N-terminal bivalent switches with the short-dimeric CAR was the most optimal for immunological synapse for the in vitro killing of U937 cells (FIG. 38D). […]

B1: anti-CLL1 switch A + B: anti-CLL1 Fab switch, N-terminal bivalent (LCNT & HCNT; SEQ ID 102 & 103) (antibody)
heavy: NYHLENEVARLKKLLVGEAAAKEAAAKADIQLQESGPGLVKPSQSLSLTCSVTGYSITSAYYWNWIRQFPGNKLEWMGYISYDGRNNYNPSLKNRISITRDTSKNQFFLKLNSVTTEDTATYYCAKEGDYDVGNYYAMDYWGQGTSVTVSSARTKGPSVFPLAPSSKSTSGGTAALGCLVKDYFPEPVTVSWNSGALTSGVHTFPAVLQSSGLYSLSSVVTVPSSSLGTQTYICNVNHKPSNTKVDKKVEPKSC
light: NYHLENEVARLKKLGGGGSENVLTQSPAIMSASPGEKVTMTCRASSNVISSYVHWYQQRSGASPKLWIYSTSNLASGVPARFSGSGSGTSYSLTISSVEAEDAATYYCQQYSGYPLTFGAGTKLELKRAAAAPSVFIFPPSDEQLKSGTASVVCLLNNFYPREAKVQWKVDNALQSGNSQESVTEQDSKDSTYSLSSTLTLSKADYEKHKVYACEVTHQGLSSPVTKSFNRGEC
modifications: peptide on N-termini; Made in lab - CLL1(1075.7)-HC_NT3 switch antibody polynucleotide; Made in lab - CLL1(1075.7)-LC_NT1 switch antibody polynucleotide
- immunological synapse for in vitro killing: most optimal
